Assay results as given in patent US20150266957A1 (Regeneron, published 2015).

Assays:
human PROKR1 [1] = biological target: T1, human PROKR1 (human, UniProt Q8TCW9 1-393); assay: cell-based or functional assay
cynomolgus monkey PROKR1 = cynomolgus monkey PROKR1 (cynomolgus monkey (Macaca fascicularis), UniProt G7PMD0 1-393); assay: cell-based or functional assay
mouse PROKR1 = mouse PROKR1 (mouse (Mus musculus), UniProt Q9JKL1 1-393); assay: cell-based or functional assay
rat PROKR1 = rat PROKR1 (rat (Rattus norvegicus), UniProt Q8R416 1-393); assay: cell-based or functional assay
human PROKR1 [2] = biological target: T1, human PROKR1; assay: cell-based or functional assay; remark: listed apart in the source
human PROKR1 (1-62)-hFc = biological target: T2, human PROKR1 (1-62)-hFc (human); assay: SPR (Biacore 4000), 25 C, antibody captured, antigen injected at 25 and 100 nM
T2 construct: also called soluble human PROKR1 (N-terminal portion)
Method: (§1) Kinetic experiments were carried out using HBS-EP (10 mM HEPES, 150 mM NaCl, 3 mM EDTA, 0.05% Surfactant P20, pH 7.4) as both the running buffer and the sample buffer. Antigen-antibody association rates were measured by injecting 2 concentrations (25 and 100 nM) of both human PROKR1 (1-62)-hFc (SEQ ID NO:179) and human PROKR2(1-53)-hFc (SEQ ID NO:180) over the captured antibody surface. Antibody-antigen association was monitored for 90 seconds while dissociation was monitored for 360 seconds. Kinetic on-rate (kₐ) and off-rate (kd) constants were determined from the data using Scrubber software version 2.0 c. Binding dissociation equilibrium constants (KD) and dissociative half-lives (t 1/2) were calculated from the kinetic rate constants as: KD=kd/kₐ and t 1/2=ln(2)/kd.

human PROKR2(1-53)-hFc = biological target: T3, human PROKR2(1-53)-hFc (human); assay: as above
T3 construct: also called soluble human PROKR2 (N-terminal portion)
Method: as §1

human PROKR2 = biological target: T4, human PROKR2 (human, UniProt Q8NFJ6 1-384); assay: flow cytometry, HEK293 cells expressing the target, 13 nM antibody
T4 construct: Expressed on engineered HEK293 or CHO cells; also called hPROKR2; prokineticin receptor 2
Method: (§2) Anti-PROKR antibodies generated in accordance with Example 1 were tested for the ability to bind to human, mouse, and monkey PROKR1 and PROKR2. For these experiments, HEK293 cells were engineered to express: human PROKR1; human PROKR2; mouse PROKR1; mouse PROKR2; cynomolgus monkey PROKR1; or cynomolgus monkey PROKR2. Binding of anti-human PROKR antibodies to the PROKR-expressing cell lines was measured by flow cytometry.
(§3) Adherent cells were collected using 1 mM EDTA in PBS, then washed, and re-suspended in cold PBS containing 5% FBS. For the binding experiments, each anti-PROKR antibody was added to 250,000 cells in 500 μl of PBS with 5% FBS (final antibody concentration of 13 nM). After incubation for 20 minutes at room temperature, the cells were washed with PBS containing 5% FBS. A secondary antibody, recognizing either human (Jackson Immuno Research, #115-135-205) or mouse Fc (BD Pharmigen, #550826) and conjugated to allophycyanin, was then added to the cell mixture at a final concentration of 13.3 nM. After incubating for 20 minutes on ice, the cells were washed and resuspended in PBS containing 5% FBS and then sorted and analyzed on a FACSCalibur (BD Biosciences) flow cytometer to determine relative binding by the candidate antibodies. The cell samples containing secondary antibody alone were used as negative control for FACS gating. Histograms of cells stained with anti-human PROKR antibodies were compared with cells stained with secondary alone. […] ND=not determined.

mouse PROKR2 = biological target: T5, mouse PROKR2 (mouse (Mus musculus), UniProt Q8K458 1-381); assay: as above
T5 construct: whole, on cells; Expressed on engineered HEK293 or CHO cells; also called mPROKR2; CHO/mPROKR2
Method: as §2, §3

T1 sequence (Q8TCW9 whole entry): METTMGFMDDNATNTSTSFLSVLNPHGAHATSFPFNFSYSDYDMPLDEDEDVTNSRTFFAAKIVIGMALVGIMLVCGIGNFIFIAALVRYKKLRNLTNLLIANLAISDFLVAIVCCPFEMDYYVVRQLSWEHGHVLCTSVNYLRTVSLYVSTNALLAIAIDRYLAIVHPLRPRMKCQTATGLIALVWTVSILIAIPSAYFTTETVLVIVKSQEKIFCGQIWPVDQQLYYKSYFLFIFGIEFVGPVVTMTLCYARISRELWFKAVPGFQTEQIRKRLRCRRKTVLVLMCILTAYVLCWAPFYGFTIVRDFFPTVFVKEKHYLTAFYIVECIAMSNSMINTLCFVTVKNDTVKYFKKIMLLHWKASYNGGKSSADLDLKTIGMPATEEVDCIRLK
T4 sequence (Q8NFJ6 whole entry): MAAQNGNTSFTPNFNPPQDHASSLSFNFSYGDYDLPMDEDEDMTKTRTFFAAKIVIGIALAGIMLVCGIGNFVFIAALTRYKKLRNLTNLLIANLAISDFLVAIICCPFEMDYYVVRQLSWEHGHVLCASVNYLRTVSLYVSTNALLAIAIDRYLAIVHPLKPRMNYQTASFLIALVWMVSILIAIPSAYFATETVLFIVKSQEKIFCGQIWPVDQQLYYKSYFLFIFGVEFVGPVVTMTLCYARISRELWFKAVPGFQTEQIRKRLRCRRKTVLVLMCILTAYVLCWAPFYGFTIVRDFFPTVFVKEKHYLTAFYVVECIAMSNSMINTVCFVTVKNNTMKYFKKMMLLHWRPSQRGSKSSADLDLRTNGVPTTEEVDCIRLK
Sequence of rat PROKR1 (Q8R416 whole entry): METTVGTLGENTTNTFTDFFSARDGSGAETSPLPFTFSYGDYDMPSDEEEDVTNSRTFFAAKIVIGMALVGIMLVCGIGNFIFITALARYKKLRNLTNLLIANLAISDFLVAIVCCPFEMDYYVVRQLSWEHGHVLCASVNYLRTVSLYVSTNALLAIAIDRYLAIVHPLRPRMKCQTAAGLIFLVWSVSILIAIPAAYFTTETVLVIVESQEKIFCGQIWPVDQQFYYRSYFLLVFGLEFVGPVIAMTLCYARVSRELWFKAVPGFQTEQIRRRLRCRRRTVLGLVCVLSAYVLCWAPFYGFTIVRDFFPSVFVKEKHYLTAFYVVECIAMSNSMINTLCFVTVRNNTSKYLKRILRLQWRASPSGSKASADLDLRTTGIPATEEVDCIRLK
Sequence of cynomolgus monkey PROKR1 (G7PMD0 entry or part of it): as the sequence (Q8TCW9 whole entry) above, with V22A, T31A, S40G, I82V, V135I, K210R, V246F, D348N, V350A counted along it
Sequence of mouse PROKR1 (Q9JKL1 whole entry): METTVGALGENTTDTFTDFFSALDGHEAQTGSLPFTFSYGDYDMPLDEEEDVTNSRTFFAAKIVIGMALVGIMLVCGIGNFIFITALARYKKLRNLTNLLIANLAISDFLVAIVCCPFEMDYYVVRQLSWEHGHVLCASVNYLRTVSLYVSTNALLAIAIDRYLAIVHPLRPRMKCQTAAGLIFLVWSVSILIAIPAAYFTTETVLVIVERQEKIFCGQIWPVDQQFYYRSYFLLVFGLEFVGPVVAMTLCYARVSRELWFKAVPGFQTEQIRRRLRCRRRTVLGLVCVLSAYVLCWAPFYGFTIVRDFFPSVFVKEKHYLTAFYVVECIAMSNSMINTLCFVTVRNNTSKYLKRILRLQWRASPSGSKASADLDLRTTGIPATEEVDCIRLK
T2 sequence (chain, as listed by the source limits assumed): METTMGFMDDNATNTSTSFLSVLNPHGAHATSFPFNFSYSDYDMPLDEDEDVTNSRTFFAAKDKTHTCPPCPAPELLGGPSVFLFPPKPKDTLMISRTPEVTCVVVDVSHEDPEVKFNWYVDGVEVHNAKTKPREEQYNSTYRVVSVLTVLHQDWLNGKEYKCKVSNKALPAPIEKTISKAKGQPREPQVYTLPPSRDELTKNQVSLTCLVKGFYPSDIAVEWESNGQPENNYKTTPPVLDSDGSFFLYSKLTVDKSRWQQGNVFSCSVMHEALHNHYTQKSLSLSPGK
T5 sequence (Q8K458 whole entry): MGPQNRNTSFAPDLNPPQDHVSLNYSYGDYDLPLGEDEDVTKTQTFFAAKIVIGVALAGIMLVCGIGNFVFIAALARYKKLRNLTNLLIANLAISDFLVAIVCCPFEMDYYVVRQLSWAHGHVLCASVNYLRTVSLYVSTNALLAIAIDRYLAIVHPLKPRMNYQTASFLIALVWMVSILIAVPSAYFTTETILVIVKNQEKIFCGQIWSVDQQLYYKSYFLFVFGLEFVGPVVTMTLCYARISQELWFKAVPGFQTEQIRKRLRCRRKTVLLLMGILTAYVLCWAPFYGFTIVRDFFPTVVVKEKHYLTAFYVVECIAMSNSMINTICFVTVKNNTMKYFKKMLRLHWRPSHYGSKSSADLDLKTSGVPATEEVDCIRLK

Row | Block (%), calcium flux, hPROKR1 + PK1 (1 nM hPK1) (human PROKR1 [1]) | Block (%), calcium flux, hPROKR1 + PK2 (1 nM hPK2) (human PROKR1 [1]) | IC50 (nM), inhibition of calcium flux, hPROKR1 + PK1 (1 nM hPK1) (human PROKR1 [1]) | IC50 (nM), inhibition of calcium flux, hPROKR1 + PK2 (1 nM hPK2) (human PROKR1 [1]) | Block (%), calcium flux, MfPROKR1 + PK1 (5 nM hPK1) (cynomolgus monkey PROKR1) | Block (%), calcium flux, MfPROKR1 + PK2 (0.5 nM hPK2) (cynomolgus monkey PROKR1) | IC50 (nM), inhibition of calcium flux, MfPROKR1 + PK1 (5 nM hPK1) (cynomolgus monkey PROKR1) | IC50 (nM), inhibition of calcium flux, MfPROKR1 + PK2 (0.5 nM hPK2) (cynomolgus monkey PROKR1) | Block (%), calcium flux, mPROKR1 + PK1 (1 nM hPK1) (mouse PROKR1) | Block (%), calcium flux, rPROKR1 + PK1 (1 nM hPK1) (rat PROKR1) | IC50 (nM), blocking of hPK2 induced calcium flux, CHO/hPROKR1 non-induced (4 nM hPK2) (human PROKR1 [2]) | Kd (human PROKR1 (1-62)-hFc) | koff (human PROKR1 (1-62)-hFc) | kon (human PROKR1 (1-62)-hFc) | t½ (human PROKR1 (1-62)-hFc) | Kd (human PROKR2(1-53)-hFc) | koff (human PROKR2(1-53)-hFc) | kon (human PROKR2(1-53)-hFc) | t½ (human PROKR2(1-53)-hFc) | binding result (human PROKR2) | Binder | further results
1 | 101% | 77.5% | 6.3 nM | 55.1 nM | 101% | 93.7% | 6.7 nM | 51.8 nM | 0% | 0% | 20 nM | 0.461 nM | 0.000136 s⁻¹ | 294000 M⁻¹ s⁻¹ | 85 min | 11 nM | 0.00539 s⁻¹ | 489000 M⁻¹ s⁻¹ | 2 min | – | H4H6385N (antibody, human IgG4, V domains shown, Form used in SPR and calcium assays; also called H4HM6385N) VH: EVQVVESGGGLVKPGGSLRLSCAASGFTFSNVWMTWVRQAPGKGLEWVGRIKSKIEGGTTDYAASVKGRFTISRDDSKNTQSLQMNSLKSEDTAVYYCSTGHLAYWGQGTLVIVSS VL: DIVMTQTPLSSPVSLGQPASISCRSSQSLVHSDGSTYLSWLQQRPGQPPRLLIYKISNRFSGVPDRFSGSGAGTDFTLKISRVEAEDVGIYYCMQATQFPTFGQGTKVEIK | IC50 (nM), blocking of hPK1 induced calcium flux, CHO/hPROKR1 non-induced (40 or 80 nM hPK1, average) (human PROKR1 [2]): 14.2 nM
2 | – | – | – | – | – | – | – | – | – | – | – | 10.6 nM | 0.0062 s⁻¹ | 583000 M⁻¹ s⁻¹ | 2 min | 129 nM | 0.0134 s⁻¹ | 104000 M⁻¹ s⁻¹ | 1 min | binds | H4H6663P (antibody, human IgG4, V domains shown) VH: EVQLVESGGGLVKPGGSLRLSCAASGFTFSNAWMSWVRQVPGKGLEWVGRIKSKTDGGTTDYAAPVKGRFTISRDDPKNTLYLQMYSLKTEDTAVYYCTTRSMQYWGQGTLVTVSS VL: DIVMTQTPLSSPVTLGQPASISCRSSQSLVHSDGYTYLNWLQQRPGQPPRLLIYKISNRFSGVPDRFSGSGAGTDFTLKISRVEAEDVGIYYCMQATQFPTFGQGTKVEIK | Block (%), calcium flux, hPROKR1 + PK1 (20 nM hPK1) (human PROKR1 [1]): 15.5%; IC50 (nM), inhibition of calcium flux, hPROKR1 + PK1 (20 nM hPK1) (human PROKR1 [1]): > 1000 nM
3 | 101% | 40% | 8.5 nM | > 300 nM | 99.3% | 85.7% | 32.9 nM | 63.9 nM | 0% | 0% | 27.4 nM | 1.12 nM | 0.000287 s⁻¹ | 255000 M⁻¹ s⁻¹ | 40 min | 16.1 nM | 0.00857 s⁻¹ | 533000 M⁻¹ s⁻¹ | 1 min | binds | H4H6698P (antibody, human IgG4, V domains shown) VH: EVQLVESGGGLVKPGGSLRLSCAASGFTFSNVWMTWVRQAPGKGLEWVGRIKTKTDGGTTDYAAPVKGRFTISRDDSKNSLYLQMSSLKTEDTAVYYCTTGHTSYWGQGTLVTVSS VL: not shown | IC50 (nM), blocking of hPK1 induced calcium flux, CHO/hPROKR1 non-induced (40 nM hPK1) (human PROKR1 [2]): 3.1 nM; binding result (mouse PROKR2): binds
4 | 98.5% | 56.6% | 6.6 nM | > 300 nM | 101% | 50.5% | 6.4 nM | > 300 nM | 20.9% | 0% | 21.9 nM | 1.07 nM | 0.000412 s⁻¹ | 385000 M⁻¹ s⁻¹ | 28 min | 2.41 nM | 0.00215 s⁻¹ | 891000 M⁻¹ s⁻¹ | 5 min | binds | H4H6701P (antibody, human IgG4, V domains shown) VH: EVQLVESGGGLVKPGGSLRLSCAASGFTFSNAWMTWVRQAPGKGLEWVGRTKTKTEGGTTDYAAPVKGRFTISRDDSKNTLYLQMNSLKTEDTAVYYCTTGHIFYWGQGTLVTVSS VL: not shown | IC50 (nM), inhibition of calcium flux, mPROKR1 + PK1 (1 nM hPK1) (mouse PROKR1): > 300 nM; IC50 (nM), blocking of hPK1 induced calcium flux, CHO/hPROKR1 non-induced (40 nM hPK1) (human PROKR1 [2]): 4.1 nM; binding result (mouse PROKR2): binds
